This passage reports stoichiometry N results from PMC6563307.

Assay [1] deals with Vip3Ab1-740 processed by midgut fluid (~65 kDa and ~20 kDa products that remain associated) (Bacillus thuringiensis). Kind of assay: SEC; analytical size exclusion chromatography after overnight digestion at pH 10.0, 30 °C, with S. frugiperda or S. eridania midgut fluid; 6 µL injected at 150 µg/mL; size estimated from molecular weight standards.
The target in assay [2] is Vip3Ab1 (full length, not digested) (Bacillus thuringiensis). Put plainly: SEC; analytical size exclusion chromatography of the full-length protein incubated overnight without midgut fluid, pH 10.0; 6 µL injected at 150 µg/mL; size estimated from molecular weight standards.
Assay [3] addresses Vip3Ab1-740 (full length, not digested) (Bacillus thuringiensis). The assay is described as above.
For assay [4], the target named is Vip3Ab1 processed by midgut fluid (~65 kDa and ~20 kDa products that remain associated) (Bacillus thuringiensis). Kind of assay: SEC; analytical size exclusion chromatography after overnight digestion at pH 10.0, 30 °C, with S. frugiperda or S. eridania midgut fluid; 6 µL injected at 150 µg/mL; size estimated from molecular weight standards.

The term stoichiometry N denotes a count of units in the complex or per binding partner. Turning to “Vip3Ab1-740 processed by midgut fluid (~65 kDa and ~20 kDa products that remain associated) (complex)”, the stoichiometry N in assay [1] was 4.

Take “Vip3Ab1 (full length, not digested) (natural protein)”: the stoichiometry N in assay [2] is 4.

Turning to Vip3Ab1-740 (full length, not digested), the stoichiometry N in assay [3] was 4.

On to “Vip3Ab1 processed by midgut fluid (~65 kDa and ~20 kDa products that remain associated) (complex)”, for which, in assay [4], the stoichiometry N is 4.
